Legend:
Experiment in all cases: Safety
Assay type in all cases: in vivo, human
[1] = tested on: patients with advanced solid tumors; conditions: Part A
[2] = tested on: patients with advanced solid tumors; conditions: Part B
[3] = tested on: patients with advanced solid tumors; conditions: Part FE
[4] = peposertib 100 mg b.i.d., all grade
[5] = peposertib 100 mg b.i.d., grade ≥3
[6] = peposertib 200 mg b.i.d., all grade
[7] = peposertib 200 mg b.i.d., grade ≥3
[8] = peposertib 250 mg b.i.d., all grade
[9] = peposertib 250 mg b.i.d., grade ≥3
[10] = peposertib 300 mg b.i.d., all grade
[11] = peposertib 300 mg b.i.d., grade ≥3
[12] = peposertib 400 mg b.i.d., all grade
[13] = peposertib 400 mg b.i.d., grade ≥3
[14] = peposertib 100 mg q.d., all grade
[15] = peposertib 100 mg q.d., grade ≥3
[16] = peposertib 150 mg q.d., all grade
[17] = peposertib 150 mg q.d., grade ≥3
[18] = peposertib 200 mg q.d., all grade
[19] = peposertib 200 mg q.d., grade ≥3
[20] = peposertib 250 mg q.d., all grade
[21] = peposertib 250 mg q.d., grade ≥3

Avelumab: anti-PD-L1 antibody, immune checkpoint inhibitor, 800 mg Q2W intravenous infusion [reference compound]
Avelumab-related TEAE: diarrhea ([1]; all dose levels): 4 (13.8%) | Avelumab-related TEAE: fatigue ([1]; all dose levels): 5 (17.2%) | Avelumab-related TEAE: rash ([1]; all dose levels): 5 (17.2%) | Avelumab-related TEAE: vomiting ([1]; all dose levels): 4 (13.8%) | Serious TEAE, avelumab related [1, 4]: 0 n (%) | TEAE, avelumab related [1, 4]: 2 (50.0) n (%) | Serious TEAE, avelumab related [1, 5]: 0 n (%) | TEAE, avelumab related [1, 5]: 0 n (%) | Avelumab-related pneumonitis ([1]; peposertib 200 mg b.i.d.): 9.1% | Serious TEAE, avelumab related [1, 6]: 3 (27.3) n (%) | TEAE, avelumab related [1, 6]: 8 (72.7) n (%) | Serious TEAE, avelumab related [1, 7]: 3 (27.3) n (%) | TEAE, avelumab related [1, 7]: 3 (27.3) n (%) | Avelumab-related pneumonitis ([1]; peposertib 250 mg b.i.d.): 25.0% | Serious TEAE, avelumab related [1, 8]: 3 (75.0) n (%) | TEAE, avelumab related [1, 8]: 3 (75.0) n (%) | Serious TEAE, avelumab related [1, 9]: 3 (75.0) n (%) | TEAE, avelumab related [1, 9]: 3 (75.0) n (%) | Avelumab-related pneumonitis ([1]; peposertib 300 mg b.i.d.): 16.7% | Serious TEAE, avelumab related [1, 10]: 1 (16.7) n (%) | TEAE, avelumab related [1, 10]: 3 (50.0) n (%) | Serious TEAE, avelumab related [1, 11]: 1 (16.7) n (%) | TEAE, avelumab related [1, 11]: 2 (33.3) n (%) | Serious TEAE, avelumab related [1, 12]: 3 (75.0) n (%) | TEAE, avelumab related [1, 12]: 4 (100.0) n (%) | Serious TEAE, avelumab related [1, 13]: 3 (75.0) n (%) | TEAE, avelumab related [1, 13]: 4 (100.0) n (%) | Avelumab-related TEAE: IRR ([2]; all dose levels): 8 (42.1%) | Avelumab-related TEAE: fatigue ([2]; all dose levels): 3 (15.8%) | Serious TEAE, avelumab related [2, 14]: 1 (33.3) n (%) | TEAE, avelumab related [2, 14]: 3 (100.0) n (%) | Serious TEAE, avelumab related [2, 15]: 1 (33.3) n (%) | TEAE, avelumab related [2, 15]: 1 (33.3) n (%) | Serious TEAE, avelumab related [2, 16]: 1 (33.3) n (%) | TEAE, avelumab related [2, 16]: 3 (100.0) n (%) | Serious TEAE, avelumab related [2, 17]: 1 (33.3) n (%) | TEAE, avelumab related [2, 17]: 1 (33.3) n (%) | Avelumab-related pneumonitis ([2]; peposertib 200 mg q.d.): 25.0% | Serious TEAE, avelumab related [2, 18]: 0 n (%) | TEAE, avelumab related [2, 18]: 3 (75.0) n (%) | Serious TEAE, avelumab related [2, 19]: 0 n (%) | TEAE, avelumab related [2, 19]: 0 n (%) | Avelumab-related pneumonitis ([2]; peposertib 250 mg q.d.): 11.1% | Serious TEAE, avelumab related [2, 20]: 2 (22.2) n (%) | TEAE, avelumab related [2, 20]: 7 (77.8) n (%) | Serious TEAE, avelumab related [2, 21]: 2 (22.2) n (%) | TEAE, avelumab related [2, 21]: 3 (33.3) n (%) | Avelumab-related TEAE: diarrhea ([3]; all dose levels): 3 (33.3%) | Avelumab-related TEAE: fatigue ([3]; all dose levels): 3 (33.3%) | Serious TEAE, avelumab related [3, 4]: 1 (25.0) n (%) | TEAE, avelumab related [3, 4]: 3 (75.0) n (%) | Serious TEAE, avelumab related [3, 5]: 1 (25.0) n (%) | TEAE, avelumab related [3, 5]: 1 (25.0) n (%) | Serious TEAE, avelumab related [3, 6]: 2 (40.0) n (%) | TEAE, avelumab related [3, 6]: 5 (100.0) n (%) | Serious TEAE, avelumab related [3, 7]: 2 (40.0) n (%) | TEAE, avelumab related [3, 7]: 3 (60.0) n (%)

From article PMC10937199 (ESMO Open, 2024)
